Assay results: the Immune Epitope Database (IEDB)

Legend:
Test in all cases: IEDB peptide-MHC binding, purified MHC/competitive/radioactivity; filed as Kd, often an IC50 or EC50 that approximates it; ≥ and ≤ were set here for values at or beyond the usual limits of such assays
[1] = target: HLA-A*33:01
[2] = target: HLA-A*03:01
[3] = target: HLA-A*68:01
[4] = target: HLA-A*11:01
[5] = target: HLA-A*31:01
[6] = source organism: Vaccinia virus WR
[7] = source organism: SARS coronavirus Tor2
[8] = source organism: Mammarenavirus juninense
[9] = source organism: Vaccinia virus Copenhagen
[10] = source organism: Mammarenavirus tacaribeense
[11] = source organism: Mammarenavirus guanaritoense

## LIKFISDNKK
[1]; [6]
  Kd: ≥ 10 µM
[2]; [6]
  Kd: 142 nM
[3]; [6]
  Kd: 47.2 nM
[4]; [6]
  Kd: 1010 nM
[5]; [6]
  Kd: 42.4 nM

## LLRHYYNKR
[1]; [6]
  Kd: 0.0513 µM
[2]; [6]
  Kd: 3020 nM
[3]; [6]
  Kd: 2520 nM
[4]; [6]
  Kd: 833 nM
[5]; [6]
  Kd: 1.68 nM

## LTILDDNLY
[1]; [6]
  Kd: ≥ 69.5 µM
[2]; [6]
  Kd: 11200 nM
[3]; [6]
  Kd: 376 nM
[4]; [6]
  Kd: 3240 nM
[5]; [6]
  Kd: ≥ 31700 nM

## LVLLILMTAR
[1]; [7]
  Kd: 5.5 µM
[2]; [7]
  Kd: 3780 nM
[3]; [7]
  Kd: 6750 nM
[4]; [7]
  Kd: 8740 nM
[5]; [7]
  Kd: 918 nM

## MTLVPVLEK
[1]; [6]
  Kd: 1.33 µM
[2]; [6]
  Kd: 25.3 nM
[3]; [6]
  Kd: 5.78 nM
[4]; [6]
  Kd: 6.66 nM
[5]; [6]
  Kd: 97.4 nM

## MVDELVTRK
[1]; [6]
  Kd: 2.03 µM
[2]; [6]
  Kd: 68.9 nM
[3]; [6]
  Kd: 793 nM
[4]; [6]
  Kd: 161 nM
[5]; [6]
  Kd: 3950 nM

## MVGLFSNNPH
[1]; [8]
  Kd: 0.398 µM
[2]; [8]
  Kd: ≥ 30200 nM
[3]; [8]
  Kd: 50 nM
[4]; [8]
  Kd: 5960 nM
[5]; [8]
  Kd: 106 nM

## NILGGVLHTK
[1]; [6]
  Kd: 1.37 µM
[2]; [6]
  Kd: 39 nM
[3]; [6]
  Kd: 19.9 nM
[4]; [6]
  Kd: 36.8 nM
[5]; [6]
  Kd: 1820 nM

## NKQYIHCFRK
[1]; [8]
  Kd: 17.5 µM
[2]; [8]
  Kd: 973 nM
[3]; [8]
  Kd: 1500 nM
[4]; [8]
  Kd: 652 nM
[5]; [8]
  Kd: 128 nM

## NMRDLIVTFR
[1]; [6]
  Kd: 0.000566 µM
[2]; [6]
  Kd: 10500 nM
[3]; [6]
  Kd: 11.5 nM
[4]; [6]
  Kd: 14800 nM
[5]; [6]
  Kd: 1.14 nM

## NQVIVNNLDK
[1]; [7]
  Kd: ≥ 70 µM
[2]; [7]
  Kd: ≥ 28900 nM
[3]; [7]
  Kd: 13400 nM
[4]; [7]
  Kd: 13300 nM
[5]; [7]
  Kd: ≥ 40700 nM

## NTIVFGIYK
[1]; [9]
  Kd: ≥ 77.7 µM
[2]; [9]
  Kd: ≥ 28900 nM
[3]; [9]
  Kd: 1110 nM
[4]; [9]
  Kd: 1080 nM
[5]; [9]
  Kd: ≥ 33400 nM

## PFKVINLPK
[1]; [6]
  Kd: ≥ 77.7 µM
[2]; [6]
  Kd: 9490 nM
[3]; [6]
  Kd: 15500 nM
[4]; [6]
  Kd: 665 nM
[5]; [6]
  Kd: 6360 nM

## PLFDFVNEKY
[1]; [6]
  Kd: ≥ 70 µM
[2]; [6]
  Kd: ≥ 70100 nM
[3]; [6]
  Kd: ≥ 70200 nM
[4]; [6]
  Kd: ≥ 69800 nM
[5]; [6]
  Kd: ≥ 26800 nM

## PTFQLLNMIK
[1]; [6]
  Kd: ≥ 70 µM
[2]; [6]
  Kd: 9050 nM
[3]; [6]
  Kd: ≥ 10000 nM
[4]; [6]
  Kd: 93.8 nM
[5]; [6]
  Kd: 12500 nM

## PVETLFGSY
[1]; [6]
  Kd: ≥ 77.7 µM
[2]; [6]
  Kd: ≥ 38900 nM
[3]; [6]
  Kd: ≥ 33500 nM
[4]; [6]
  Kd: 2200 nM
[5]; [6]
  Kd: ≥ 62300 nM

## QLPKRGVRVR
[1]; [6]
  Kd: ≥ 70 µM
[2]; [6]
  Kd: ≥ 22600 nM
[3]; [6]
  Kd: ≥ 20100 nM
[4]; [6]
  Kd: ≥ 47000 nM
[5]; [6]
  Kd: 5380 nM

## QYIHCFRKPH
[1]; [10]
  Kd: 0.14 µM
[2]; [10]
  Kd: ≥ 70000 nM
[3]; [10]
  Kd: ≥ 57300 nM
[4]; [10]
  Kd: ≥ 69700 nM
[5]; [10]
  Kd: 386 nM

## RVYANLGER
[1]; [7]
  Kd: ≥ 45.4 µM
[2]; [7]
  Kd: 18.6 nM
[3]; [7]
  Kd: 601 nM
[4]; [7]
  Kd: 126 nM
[5]; [7]
  Kd: 6.3 nM

## SAQCFKMFYK
[1]; [7]
  Kd: 0.398 µM
[2]; [7]
  Kd: 18.4 nM
[3]; [7]
  Kd: 30.5 nM
[4]; [7]
  Kd: 4.59 nM
[5]; [7]
  Kd: 26.8 nM

## SFSNTIQSY
[1]; [6]
  Kd: ≥ 77.7 µM
[2]; [6]
  Kd: 11700 nM
[3]; [6]
  Kd: 10400 nM
[4]; [6]
  Kd: 4300 nM
[5]; [6]
  Kd: ≥ 77900 nM

## SIKDVIHDY
[1]; [6]
  Kd: 19.4 µM
[2]; [6]
  Kd: 2830 nM
[3]; [6]
  Kd: 3550 nM
[4]; [6]
  Kd: 2810 nM
[5]; [6]
  Kd: 2260 nM

## SIVLHIQLEH
[1]; [11]
  Kd: 8.1 µM
[2]; [11]
  Kd: 1460 nM
[3]; [11]
  Kd: ≥ 22100 nM
[4]; [11]
  Kd: 1070 nM
[5]; [11]
  Kd: 11800 nM

## SMDVLAEKKY
[1]; [6]
  Kd: ≥ 29.3 µM
[2]; [6]
  Kd: ≥ 28500 nM
[3]; [6]
  Kd: 2640 nM
[4]; [6]
  Kd: ≥ 10000 nM
[5]; [6]
  Kd: 17100 nM

## SQIFNIISY
[1]; [6]
  Kd: 0.996 µM
[2]; [6]
  Kd: 675 nM
[3]; [6]
  Kd: 158 nM
[4]; [6]
  Kd: 53.5 nM
[5]; [6]
  Kd: 915 nM

## SSVQLSNNKY
[1]; [6]
  Kd: 10.1 µM
[2]; [6]
  Kd: 4650 nM
[3]; [6]
  Kd: 65.7 nM
[4]; [6]
  Kd: 141 nM
[5]; [6]
  Kd: 2870 nM

## STCFKLMLK
[1]; [7]
  Kd: 1.45 µM
[2]; [7]
  Kd: 0.808 nM
[3]; [7]
  Kd: 1.65 nM
[4]; [7]
  Kd: 0.553 nM
[5]; [7]
  Kd: 26.5 nM

## STQSVLCVK
[1]; [6]
  Kd: 15.6 µM
[2]; [6]
  Kd: 149 nM
[3]; [6]
  Kd: 3.14 nM
[4]; [6]
  Kd: 0.756 nM
[5]; [6]
  Kd: 115 nM

## STYSDICSK
[1]; [6]
  Kd: 0.988 µM
[2]; [6]
  Kd: 23.6 nM
[3]; [6]
  Kd: 2.06 nM
[4]; [6]
  Kd: 0.706 nM
[5]; [6]
  Kd: 80.2 nM

## TIAGGVCYY
[1]; [6]
  Kd: ≥ 51 µM
[2]; [6]
  Kd: 110 nM
[3]; [6]
  Kd: 605 nM
[4]; [6]
  Kd: 94.7 nM
[5]; [6]
  Kd: 16200 nM
